Data from publication PMC10945505.

Assays:
[1] = molecular target: F-FGF21FL (UniProt Q9NSA1); assay: BLI; Octet Red 96, 30°C, 1000 rpm; F-FGF21 proteins at 50 nM captured on AHC (anti-hIgG Fc capture) biosensors, βKlotho in running buffer at 0.2743-200 nM; global fit, 1:1 binding model, monovalent KD
[2] = molecular target: F-FGF21∆N (UniProt Q9NSA1); assay: as above

Kd [1]: 10.1 nM | koff [1]: 0.00124 s⁻¹ | kon [1]: 122000 M⁻¹ s⁻¹ | Kd [2]: 11.8 nM | koff [2]: 0.00195 s⁻¹ | kon [2]: 166000 M⁻¹ s⁻¹
Substance: Human βKlotho (from UniProt Q86Z14 1-996) (receptor)
